The nature of this data set: Gamma-radiation stability of hGH:protamine powders and SAIB/BB/PLA suspensions by RPLC. The class given is physicochemical. Particulars: after gamma irradiation at 15 kGy.

Procedure: Aliquots of 3 mL each of the bulk hGH solution in buffer from BresaGen were transferred into 5 mL type-Hypak BD glass syringes and lyophilized using the lyophilization cycle provided in Table 1 (optimized for hGH) to fit the steps provided with an FTS lyophilizer, Dura Stop, MP Stoppering Tray Dryer, Stone Ridge, N.Y.
100 mg of BresaGen hGH powder was placed in a 15 mL wide-mouth glass jar. 5.5 mL of 25 mM NH4HCO3 (pH ˜7.5) solution was added and the compound was stirred for 30 min at room temperature, 400 rpm until it became clear. Then 1.02 mL of protamine sulfate solution (conc. 10 mg/mL) was slowly added to form a white precipitate. The resulting suspension was stirred for 30 min to complete the complexation reaction. 0.19 mL of 290 mM sucrose solution was then added while stirring at 400 rpm. When the solution was clear, 15.2 μL of 10% polysorbate 20 solution was added. In powders with methonine formulation, 1 wt %-35 wt % of methionine relative to the total protein weight was added to the complexed suspension. […]
Stability of the above formulations was determined using RPLC analysis. […]

Consider “control hGH powder: lyophilized human growth hormone powder (BresaGen) without complex, used as control”, for which the “purity of hGH / impurity peaks in RPLC spectra (FIG. 1)” value is “showed an impurity peak around 8.15 min”.

The record behind these values is patent US20140294977A1, “Radiation-Sterilized Biodegradable Drug Delivery Composition” (DURECT CORPORATION, priority 2011, published 2014).
